Patent US20220298218A1 (ANTAG THERAPEUTICS, published 2022)
*1 amine or outer side, *2 acyl side, *3 side chain or, on linkers, in order; H or OH if unused. Where no end group is shown, it is not given here. Side-chain parts run from the residue outwards. The star is where a group is joined. C18 diacid = O=C(O)CCCCCCCCCCCCCCCCC(=O)*; C16 diacid = O=C(O)CCCCCCCCCCCCCCC(=O)*; γGlu = O=C(O)[C@H](CCC(=O)[*:2])N[*:1]; AEEA = NCCOCCOCC(=O)O

B1: AT545 (peptide)
peptide: EGTFISDYSIAMDKIK([AEEA-AEEA-γGlu-C18 diacid])QQDFVNWLLAQKGKKNDW-NH2
modifications: N-terminus assumed
SMILES: CC[C@H](C)[C@H](NC(=O)[C@H](CO)NC(=O)[C@H](Cc1ccc(O)cc1)NC(=O)[C@H](CC(=O)O)NC(=O)[C@H](CO)NC(=O)[C@@H](NC(=O)[C@H](Cc1ccccc1)NC(=O)[C@@H](NC(=O)CNC(=O)[C@@H](N)CCC(=O)O)[C@@H](C)O)[C@@H](C)CC)C(=O)N[C@@H](C)C(=O)N[C@@H](CCSC)C(=O)N[C@@H](CC(=O)O)C(=O)N[C@@H](CCCCN)C(=O)N[C@H](C(=O)N[C@@H](CCCCNC(=O)COCCOCCNC(=O)COCCOCCNC(=O)CC[C@H](NC(=O)CCCCCCCCCCCCCCCCC(=O)O)C(=O)O)C(=O)N[C@@H](CCC(N)=O)C(=O)N[C@@H](CCC(N)=O)C(=O)N[C@@H](CC(=O)O)C(=O)N[C@@H](Cc1ccccc1)C(=O)N[C@H](C(=O)N[C@@H](CC(N)=O)C(=O)N[C@@H](Cc1c[nH]c2ccccc12)C(=O)N[C@@H](CC(C)C)C(=O)N[C@@H](CC(C)C)C(=O)N[C@@H](C)C(=O)N[C@@H](CCC(N)=O)C(=O)N[C@@H](CCCCN)C(=O)NCC(=O)N[C@@H](CCCCN)C(=O)N[C@@H](CCCCN)C(=O)N[C@@H](CC(N)=O)C(=O)N[C@@H](CC(=O)O)C(=O)N[C@@H](Cc1c[nH]c2ccccc12)C(N)=O)C(C)C)[C@@H](C)CC
B2: AT631 (peptide)
peptide: EGTFISDYSIAMDKIK(C16 diacid)QQDFVNWLLAQKPSSGAPPPS-OH
modifications: N-terminus assumed
SMILES: CC[C@H](C)[C@H](NC(=O)[C@H](CO)NC(=O)[C@H](Cc1ccc(O)cc1)NC(=O)[C@H](CC(=O)O)NC(=O)[C@H](CO)NC(=O)[C@@H](NC(=O)[C@H](Cc1ccccc1)NC(=O)[C@@H](NC(=O)CNC(=O)[C@@H](N)CCC(=O)O)[C@@H](C)O)[C@@H](C)CC)C(=O)N[C@@H](C)C(=O)N[C@@H](CCSC)C(=O)N[C@@H](CC(=O)O)C(=O)N[C@@H](CCCCN)C(=O)N[C@H](C(=O)N[C@@H](CCCCNC(=O)CCCCCCCCCCCCCCC(=O)O)C(=O)N[C@@H](CCC(N)=O)C(=O)N[C@@H](CCC(N)=O)C(=O)N[C@@H](CC(=O)O)C(=O)N[C@@H](Cc1ccccc1)C(=O)N[C@H](C(=O)N[C@@H](CC(N)=O)C(=O)N[C@@H](Cc1c[nH]c2ccccc12)C(=O)N[C@@H](CC(C)C)C(=O)N[C@@H](CC(C)C)C(=O)N[C@@H](C)C(=O)N[C@@H](CCC(N)=O)C(=O)N[C@@H](CCCCN)C(=O)N1CCC[C@H]1C(=O)N[C@@H](CO)C(=O)N[C@@H](CO)C(=O)NCC(=O)N[C@@H](C)C(=O)N1CCC[C@H]1C(=O)N1CCC[C@H]1C(=O)N1CCC[C@H]1C(=O)N[C@@H](CO)C(=O)O)C(C)C)[C@@H](C)CC

Molecular target: T1, human GIP receptor (human, UniProt P48546 22-466)
T1 sequence (looked up): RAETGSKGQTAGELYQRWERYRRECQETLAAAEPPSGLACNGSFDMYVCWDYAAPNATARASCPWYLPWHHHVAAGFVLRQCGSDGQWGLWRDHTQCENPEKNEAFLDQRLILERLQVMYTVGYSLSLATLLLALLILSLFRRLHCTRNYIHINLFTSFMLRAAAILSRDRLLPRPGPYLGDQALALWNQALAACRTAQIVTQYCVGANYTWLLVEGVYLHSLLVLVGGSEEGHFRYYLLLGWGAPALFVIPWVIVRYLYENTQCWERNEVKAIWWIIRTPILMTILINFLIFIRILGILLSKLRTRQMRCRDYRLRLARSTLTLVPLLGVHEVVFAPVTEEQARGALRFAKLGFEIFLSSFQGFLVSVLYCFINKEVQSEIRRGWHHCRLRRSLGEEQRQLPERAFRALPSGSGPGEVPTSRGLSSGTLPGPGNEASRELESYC
Assay: cell-based or functional assay

Binder | cAMP agonism % Emax [%] | cAMP antagonism [nM] | cAMP antagonism % inhib [%] | cAMP antagonism pIC50
B1 | 0 | 17.8 | 77 | 7.8
B2 | 0 | – | – | –
